Data as given in patent US7809428B2, “Devices for detection and therapy of atheromatous plaque” (The General Hospital Corporation, priority 2001, dated 2010).

Columns and labels:
[1] = tested on: aortic and iliac plaque of atherosclerotic rabbits; experiment: Intimal surface fluorescence by OMA-LIF system; format: in vivo, rabbit
Excerpt: The second measurement of intimal surface fluorescence was made by the OMA-LIF system described above. At least 15 separate fluorescence measurements were taken from each artery segment. In addition, the iliac artery through which the balloon was passed also sustained an injury due to its relatively small diameter compared to aortic section 5 and, therefore, developed atherosclerosis compared to the uninjured iliac artery. […] Sections 3, 4 and injured iliac of atherosclerotic compared to normal control had p values<0.0001, while section 5 and uninjured iliacs had p values<0.0005. Accordingly, the less severe plaques of section 5 are distinguishable from the macrophage-rich plaques of sections 3 and 4.
In FIG. 14a, a marked contrast was seen between a large aortic plaque and an area of the abdominal aorta 5 mm beneath the plaque. In FIG. 14b, another marked contrast was seen between the balloon injured iliac artery and the contralateral normal artery in the same rabbit. […] These spectra were obtained in a rabbit that had received an overdose of anesthesia. […] By palpation of the outside of the artery, the position of the catheter in relation to plaques was determined Thus, a novel method has been developed for targeting a photosensitizer composition to the activated macrophages of a vulnerable plaque with high specificity.

[2] = tested on: aortic plaque of atherosclerotic rabbits; details: rabbit, in vivo
Procedure: For confocal fluorescence microscopy, selected parts of the aortas were snap frozen in liquid nitrogen and approximately 10-20 μm frozen sections were prepared. These sections underwent laser scanning confocal fluorescence microscopy to detect the tissue distribution of the ce6. The red intracellular fluorescence from ce6 together with green tissue auto-fluorescence was imaged in the cells in 10 μm frozen sections. Sections were examined with a laser scanning confocal fluorescence microscope. A Leica DMR confocal laser fluorescence microscope (Leica Mikroskopie und Systeme GmbH, Wetzler, Germany)(excitation 488 nm argon laser) and 4×−40× air immersion lens or a 100× oil immersion objective was used to image at a resolution of 1024×1024 pixels. […] These channels were overlaid using TCS NT software (Version 1.6.551, Leica Lasertechnik, Heidelberg, Germany) to allow visualization of overlap of red and green fluorescence. These sections were also stained by immunohistochemistry using macrophage specific monoclonal antibodies and conventional H&E staining. Other parts of normal and atherosclerotic aorta were cut into small pieces, weighed and dissolved in sodium hydroxide/SDS and the tissue content of ce6 was determined by spectrofluorimetry as previously described (Hamblin et al (2000) Br. J. Cancer 83:1544). […]

[3] = tested on: balloon-injured abdominal aorta plaque; experiment: In vivo photodynamic therapy of rabbit aorta through flowing blood
Procedure: Animals (one atherosclerotic and one normal rabbit, each injected with Mal-BSA-ce6 24 hours previously; and one atherosclerotic rabbit that received no injection) were anesthetized as before and a cylindrical diffusing tipped fiber optic (length of tip=2 cm, diameter=1 mm) was advanced to a position midway along the balloon-injured abdominal aorta. […] Light was delivered at a fluence rate of approximately 100 mW/cm of diffusing tip and a total fluence of approximately 100 J/cm was delivered. At the conclusion of the illumination, the fiber was withdrawn and the arteriotomy and overlying wound were closed. Animals were sacrificed 48 hours later. […] Complete aortas and iliac arteries were removed from the PDT treated normal and atherosclerotic rabbits and control (no Mal-BSA-ce6 injection) atherosclerotic rabbit and were examined by histology using H&E, Masson Trichrome and Verhoeffs stain.

[4] = tested on: experimental atherosclerotic lesions of the aorta; format: in vivo, rabbit
Procedure: Male New Zealand White rabbits weighing 2.5-3.0 kg (Charles River Breeding Laboratories) were maintained on a 2% cholesterol-6% peanut oil diet (ICN) for 3 months. […] The femoral artery was then ligated, and the wound closed. The animals were allowed to recover from anesthesia and then returned to their cages.
Two to four millicuries of the ^99mTc-Ap4A-glucoheptonate, ^99mTc-AppCHClppA-glucoheptonate, or ^99mTc-glucoheptonate (control) was injected into marginal ear veins of groups of three rabbits with experimental atherosclerotic lesions. As a control, three unlesioned animals were injected with 2-4 mCi of ^99mTc-Ap4A-glucoheptonate. After radiopharmaceutical administration, serial gamma images were collected every minute for the first 5 minutes, every 2 minutes for the next 25 minutes, and every 5 minutes for the next 2.5 hours. In all of the rabbits, images were acquired in the anterior and lateral decubitus projections, including the heart and aorta, by using a standard field-of-view gamma camera (Series 100, Ohio Nuclear, Solon, Ohio) equipped with a high-resolution parallel-hole collimator and interfaced with a dedicated computer system (Technicare 560, Solon, Ohio). The pulse height analyzer was adjusted to record the 140 KeV photopeak of ^99mTc, and all images were recorded in a 256×256 matrix.
After acquiring the final images, the animals were sacrificed with an overdose of sodium pentobarbital. The aortas were removed, opened along the ventral surface, and mounted on styrofoam blocks. The aortas then were placed on the face of the gamma camera and ex vivo images were recorded for 10 minutes.

[5] = tested on: J774 or RAW264.7 mouse macrophage-like cells versus non-target EMT-6 cells; experiment: Cellular uptake of conjugates and free ce6; format: cell-based; details: J774 and EMT-6 cells
Procedure: J774.A1 (J774) and RAW 264.7 mouse macrophage-like cell lines, together with EMT-6 mouse mammary […] cells, were obtained from ATCC (Rockville, Md.). Cells were grown in RPMI 1640 media containing HEPES, glutamine, 10% fetal calf serum (FCS), 100 U/ml penicillin and 100 μg/ml streptomycin. They were passaged by washing with phosphate buffered saline (PBS) without Ca^2+ and Mg^2+ and by adding trypsin-EDTA to the plate for 10 minutes at 37° C.
For cellular uptake studies, cells were grown to approximately 90% confluency in twenty-four well plates and the conjugate or photosensitizer was added in about 1 ml medium containing approximately 10% serum to each well. […] The trypsin supernatant was checked for the presence of fluorescence to quantify any surface binding which might easily be removed by trypsin. The fluorescence was measured using an excitation wavelength of 400 nm and the emission scanned from 580 to 700 nm in order to calculate the peak area (λmax=664 nm). A series of dilutions in approximately 1.5 ml 0.1M NaOH/1% SDS of known concentrations of each separate conjugate and photosensitizer was scanned for fluorescence as above in order to prepare calibration curves to allow for quantitation of the ce6 by conversion of the measured peak areas into mol ce6 equivalent. […] Results were expressed as mol of ce6 per mg cell protein. […]

[6] = atherosclerotic rabbit, conjugate and light

## Mal-BSA-ce6
[1]; arteries with inflamed plaque (sections 3, 4 and injured iliac, p<0.0001)
  intimal surface fluorescence, atherosclerotic versus normal rabbit: highly significant increases in fluorescence
[1]; sections 1 and 2
  intimal surface fluorescence, atherosclerotic versus normal rabbit: not significantly different
[2]
  extracted ce6 fluorescence per gram tissue, difference atherosclerotic versus normal rabbits: significant
[3]; atherosclerotic rabbit, 48 hours after PDT
  gross damage at necropsy in illuminated aortic section or surrounding tissue: no gross damage visible
[3]; [6]
  histological changes in the illuminated section: evidence of apoptosis (pyknotic nuclei) and an inflammatory infiltrate in the plaque
  necrosis in the illuminated section (histology): some coagulative necrosis
  overall effect of treatment on plaque histology: favorable modifications of plaque histology and reduced vulnerability
[3]; normal rabbit, 48 hours after PDT
  gross damage at necropsy in surrounding tissue: some minor damage visible in the paraaortic muscle
[3]; normal rabbit, photosensitizer composition and light
  histological changes: Histological changes were not observed
[3]; two rabbits that received composition and light, two days
  ill effects of treatment before sacrifice: no ill effects

## ^99mTc-glucoheptonate
[4]; rabbit, in vivo
  clearance of radioactivity from all organs, t1/2s: 5 to 10 min
  organs in which radioactivity accumulated: accumulated in the kidneys and bladder
[4]; rabbits with experimental atherosclerosis
  accumulation of radioactivity in the aortic lesions: no evidence of specific accumulation in the aortic lesions

## chlorin e6 [ce6]
[5]
  uptake of unbound ce6 by receptor-positive and receptor-negative cells: indiscriminate uptake
